Data: publication PMC4559445

Target: PbTpk2^(226-583)-His6 (P. brasiliensis)

in vitro kinase activity (ADP-Glo) of 3 μM PbTpk2 on 50 μM kemptide in the presence of 4 μM PbGpb1, relative to PbTpk2 with kemptide alone: 40 % reduction
Substance: PbGpb1-GST (natural protein)
